# The supplement of paper PMC10567573
# ± gives the standard deviation.
# Assay: protein stability index of a GFP-peptide fusion (GPS, HEK-293T) (PSI 1-6); higher = more stable
# Settings: c terminus: a fixed tail appended
# 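Further: 24-mer peptide tiles fused after GFP, lentivirally expressed, FACS-sorted into six equal bins by GFP/DsRed ratio, decoded by Illumina sequencing, PSI is the read-weighted mean bin number.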
Sequence,protein stability index (treatment: DMSO),"protein stability index (treatment: MLN4924 1 uM, 8 h)"
SRRSMAHILKARKVLTEPEVRYYL [PLK2],2.48 ± 0.35,2.43 ± 0.15
SRRSYDDQLRSGSPPKSPRTTVHD [DNAJC4],4.89 ± 0.31,4.98 ± 0.23
SSAGGAKAGQPESRALALFDIQKI [ZNF8],3.99 ± 0.52,4.26 ± 0.26
SSFNFFVFFFIFFVQDVLFVLQAI [SCAMP3],3.17 ± 0.26,3.18 ± 0.28
SSGKLICSRTTGYQILTLEKDQEQ [GMCL1],3.94 ± 0.46,4.37 ± 0.28
SSIPRRDDFFRHESGEHFRSLLGY [RAD54B],2.65 ± 0.21,2.57 ± 0.33
SSSKWQRRDYLLLVMEGTDDGRLL [APMAP],2.88 ± 0.43,2.32 ± 0.39
SSTPDSTEGGNDDSDFRELHTARE [RTN2],5.41 ± 0.29,5.53 ± 0.21
SSYYKFKLTREVLSLFVQKLGNLM [ZER1],2.83 ± 0.45,2.6 ± 0.36
STLGGDIRESDPEQAPAPGEATAA [TBX6],5.65 ± 0.14,5.53 ± 0.38
STQTKKLSASSPRMLHRSTQTTND [ZMYND11],4.71 ± 0.54,5.15 ± 0.17
STSGQPYPTSDQEGDPGSKQPRKK [LCOR],5.5 ± 0.13,5.42 ± 0.19
SVGSYLDTLADDVPGHQTPSDLDQ [LURAP1L],5.28 ± 0.23,5.34 ± 0.24
SVSRFFADSGADPKGEPGSKQSPP [FBF1],5.09 ± 0.2,5.14 ± 0.14
SVVDHPMPEERASKYENYFSASER [HESX1],4.73 ± 0.37,4.76 ± 0.17
SVYAWGGGLGTPLRLPMLNTEVVQ [NEK8],2.63 ± 0.39,2.69 ± 0.32
SVYVKLAGEREDLWAGSKGKEFGY [MIA2],2.52 ± 0.23,2.85 ± 0.15
SWLDVQVSNTYVKQKTSAALSTMG [TPD52L3],2.79 ± 0.27,2.47 ± 0.22
SWSALWNITDETPDNCEMFLNFNG [ZER1],2.61 ± 0.25,2.79 ± 0.23
SYCPHCGEESSKAKEVTIAKADTT [EHMT1],4.27 ± 0.19,4.58 ± 0.19
SYQEEAAMELKVEDPFYWVSPGVL [MOG],3.25 ± 0.5,3.28 ± 0.13
SYRETRRKEGIVKLKPHEEPLRSE [PTPN9],4.66 ± 0.079,4.73 ± 0.3

Sequence,protein stability index (treatment: DMSO),"protein stability index (treatment: MLN4924 1 uM, 8 h)"
SYWEDLRKQARQLENELDLKLVSF [GOSR1],2.37 ± 0.24,2.57 ± 0.2
TAPQQKPIGKISKNKKKKLKKKQK [SRPK2],4.92 ± 0.32,4.84 ± 0.67
TAYWALAGSIGGLFFAVGIAQYAL [SLC22A15],3.06 ± 0.15,2.89 ± 0.18
TCQRVNGIKVQNGGIVTDTPASNH [SLC19A2],4.08 ± 0.34,4.22 ± 0.17
TDLVQFLLFKYQMKEPITKAEILE [MAGEA10],2.48 ± 0.43,2.2 ± 0.23
TEGNPRWEQTHLTYRIENYTPDLP [MMP1],3.37 ± 0.099,3.51 ± 0.35
TGEKPYQCNICGKCFSCNSNLHRH [ZNF263],4.03 ± 0.2,4.52 ± 0.26
TGFIFQKVGKLAATAVGGGFFLLQ [FUNDC2],2.36 ± 0.21,2.09 ± 0.51
TGMWWRHLVAGGGAGAVSRTCTAP [SLC25A25],2.32 ± 0.25,2.48 ± 0.42
TILDIFRFALRFIRPDPRSRVTDP [FAF2],2.75 ± 0.48,2.75 ± 0.099
TILLDGRRVKLQLWDTSGQGRFCT [RAB40B],2.28 ± 0.22,2.14 ± 0.13
TIQVHRRYWRSLRVMKVEDREGPS [HDAC6],2.31 ± 0.21,3.14 ± 0.34
TISFLGCAIQMFSFLFLGCSHSFL [OR10K2],3.14 ± 0.41,3.6 ± 0.52
TLALQGTQGQEKMMMMGPKEEEQS [ZNF232],5.29 ± 0.31,5.43 ± 0.14
TLDQTTSEEAPGGTELIQTPLASS [HDAC6],5.52 ± 0.22,5.49 ± 0.26
TLQELLARDTVQVELIPEKKGLFL [SNX8],2.47 ± 0.62,2.41 ± 0.43
TMLAGHYPFQDSEPVLLFGKIRRG [TRIB3],2.56 ± 0.16,2.77 ± 0.25
TNVVTGHRQSFGTNSDVLAQQFAL [DCAF4],3.35 ± 0.1,3.43 ± 0.33
TPATPATLSASSSAGGSRTPAMSS [TFE3],4.99 ± 0.23,4.95 ± 0.3
TQPPDESCSQNLLITQQIIPVLYC [P2RY14],2.28 ± 0.25,2.23 ± 0.22
TRIHILPSMNPDGYEVAAAQGPNK [CPN1],4.13 ± 0.25,4.06 ± 0.27
TRSKSDPVLHPSEERAAPVLSCEA [FAM189A2],5.49 ± 0.25,5.61 ± 0.15
